Assay results from the Human Domainome abundance scans (Beltran et al. 2025).
± gives the uncertainty stated by the source.

B1: Tripartite motif-containing protein 6, residues 93 to 134; numbered along this chain, Q9C030 (parent)
chain: KAVLCADHGEKLQLFCQEDGKVICWLCERSQEHRGHHTFLVE

Variants of: B1
Assay: abundance fitness (aPCA) (normalised: wild type 0, dead -1); higher = more abundant; growth selection in yeast, the domain comes from the species named
Settings: Homo sapiens

| Variant | abundance fitness |
| --- | --- |
| KAVLCADHGEKLQLFCQEDGKVIVWLCERSQEHRGHHTFLVE [C24V] | -1.19 ± 0.18 |
| KAVLCADHGEKLQLFCQEDGKVIPWLCERSQEHRGHHTFLVE [C24P] | -0.517 ± 0.13 |
| KAVLCADHGEKLQLFCQEDGKVIYWLCERSQEHRGHHTFLVE [C24Y] | -0.725 ± 0.34 |
| KAVLCADHGEKLQLFCQEDGKVIQWLCERSQEHRGHHTFLVE [C24Q] | -0.748 ± 0.12 |
| KAVLCADHGEKLQLFCQEDGKVIAWLCERSQEHRGHHTFLVE [C24A] | -0.886 ± 0.16 |
| KAVLCADHGEKLQLFCQEDGKVILWLCERSQEHRGHHTFLVE [C24L] | -1.1 ± 0.21 |
| KAVLCADHGEKLQLFCQEDGKVITWLCERSQEHRGHHTFLVE [C24T] | -0.664 ± 0.19 |
| KAVLCADHGEKLQLFCQEDGKVIEWLCERSQEHRGHHTFLVE [C24E] | -0.627 ± 0.093 |
| KAVLCADHGEKLQLFCQEDGKVIKWLCERSQEHRGHHTFLVE [C24K] | -0.615 ± 0.31 |
| KAVLCADHGEKLQLFCQEDGKVIDWLCERSQEHRGHHTFLVE [C24D] | -0.822 ± 0.16 |
| KAVLCADHGEKLQLFCQEDGKVIGWLCERSQEHRGHHTFLVE [C24G] | -1.16 ± 0.12 |
| KAVLCADHGEKLQLFCQEDGKVIRWLCERSQEHRGHHTFLVE [C24R] | -1.02 ± 0.15 |
| KAVLCADHGEKLQLFCQEDGKVIIWLCERSQEHRGHHTFLVE [C24I] | -0.753 ± 0.46 |
| KAVLCADHGEKLQLFCQEDGKVISWLCERSQEHRGHHTFLVE [C24S] | -0.717 ± 0.14 |
| KAVLCADHGEKLQLFCQEDGKVIWWLCERSQEHRGHHTFLVE [C24W] | -0.908 ± 0.33 |
| KAVLCADHGEKLQLFCQEDQKVICWLCERSQEHRGHHTFLVE [G20Q] | -0.053 ± 0.084 |
| KAVLCADHGEKLQLFCQEDVKVICWLCERSQEHRGHHTFLVE [G20V] | -0.431 ± 0.11 |
| KAVLCADHGEKLQLFCQEDRKVICWLCERSQEHRGHHTFLVE [G20R] | -0.111 ± 0.075 |
| KAVLCADHGEKLQLFCQEDTKVICWLCERSQEHRGHHTFLVE [G20T] | -0.142 ± 0.098 |
| KAVLCADHGEKLQLFCQEDLKVICWLCERSQEHRGHHTFLVE [G20L] | 0.117 ± 0.48 |

| Variant | abundance fitness |
| --- | --- |
| KAVLCADHGEKLQLFCQEDPKVICWLCERSQEHRGHHTFLVE [G20P] | -0.338 ± 0.36 |
| KAVLCADHGEKLQLFCQEDSKVICWLCERSQEHRGHHTFLVE [G20S] | -0.331 ± 0.17 |
| KAVLCADHGEKLQLFCQEDGKVICWLCEASQEHRGHHTFLVE [R29A] | -0.331 ± 0.073 |
| KAVLCADHGEKLQLFCQEDGKVICWLCMRSQEHRGHHTFLVE [E28M] | -0.326 ± 0.074 |
| KAVLCADHGEKLQLFCQEDGKVICWLCHRSQEHRGHHTFLVE [E28H] | -0.481 ± 0.11 |
| KAVLCADHGEKLQLFCQEDGKVICWLCQRSQEHRGHHTFLVE [E28Q] | -0.124 ± 0.061 |
| KAVLCADHGEKLQLFCQEDGKVICWLCGRSQEHRGHHTFLVE [E28G] | -0.197 ± 0.045 |
| KAVLCADHGEKLQLFCQEDGKVICWLCWRSQEHRGHHTFLVE [E28W] | -0.319 ± 0.079 |
| KAVLCADHGEKLQLFCQEDGKVICWLCCRSQEHRGHHTFLVE [E28C] | -0.494 ± 0.14 |
| KAVLCADHGEKLQLFCQEDGKVICWLCIRSQEHRGHHTFLVE [E28I] | -0.414 ± 0.17 |
| KAVLCADHGEKLQLFCQEDGKVICWLCKRSQEHRGHHTFLVE [E28K] | -0.062 ± 0.066 |
| KAVLCADHGEKLQLFCQEDGKVICWLCDRSQEHRGHHTFLVE [E28D] | -0.101 ± 0.087 |
| KAVLCADHGEKLQLFCQEDGKVICWLCARSQEHRGHHTFLVE [E28A] | -0.218 ± 0.053 |
| KAVLCADHGEKLQLFCQEDGKVICWLCLRSQEHRGHHTFLVE [E28L] | -0.272 ± 0.057 |
| KAVLCADHGEKLQLFCQEDGKVICWLCTRSQEHRGHHTFLVE [E28T] | 0.059 ± 0.099 |
| KAVLCADHGEKLQLFCQEDGKVICWLCYRSQEHRGHHTFLVE [E28Y] | -0.362 ± 0.11 |
| KAVLCADHGEKLQLFCQEDGKVICWLCSRSQEHRGHHTFLVE [E28S] | -0.116 ± 0.059 |
| KAVLCADHGEKLQLFCQEDGKVICWLCPRSQEHRGHHTFLVE [E28P] | -0.376 ± 0.075 |
| KAVLCADHGEKLQLFCQEDGKVICWLCVRSQEHRGHHTFLVE [E28V] | -0.19 ± 0.066 |
| KAVLCADHGEKLQLFCQEDGKVRCWLCERSQEHRGHHTFLVE [I23R] | -0.34 ± 0.063 |

| Variant | abundance fitness |
| --- | --- |
| KAVLCADHGEKLQLFCQEDGKVNCWLCERSQEHRGHHTFLVE [I23N] | -0.091 ± 0.16 |
| KAVLCADHGEKLQLFCQEDGKVECWLCERSQEHRGHHTFLVE [I23E] | -0.581 ± 0.13 |
| KAVLCADHGEKLQLFCQEDGKVSCWLCERSQEHRGHHTFLVE [I23S] | -0.579 ± 0.098 |
| KAVLCADHGEKLQLFCQEDGKVGCWLCERSQEHRGHHTFLVE [I23G] | -0.346 ± 0.048 |
| KAVLCADHGEKLQLFCQEDGKVHCWLCERSQEHRGHHTFLVE [I23H] | -0.202 ± 0.11 |
| KAVLCADHGEKLQLFCQEDGKVWCWLCERSQEHRGHHTFLVE [I23W] | -0.483 ± 0.11 |
| KAVLCADHGEKLQLFCQEDGKVLCWLCERSQEHRGHHTFLVE [I23L] | -0.361 ± 0.074 |
| KAVLCADHGEKLQLFCQEDGKVVCWLCERSQEHRGHHTFLVE [I23V] | -0.168 ± 0.091 |
| KAVLCADHGEKLQLFCQEDGKVQCWLCERSQEHRGHHTFLVE [I23Q] | -0.842 ± 0.2 |
| KAVLCADHGEKLQLFCQEDGKVACWLCERSQEHRGHHTFLVE [I23A] | -0.463 ± 0.091 |
| KAVLCADHGEKLQLFCQEDGKRICWLCERSQEHRGHHTFLVE [V22R] | 0.065 ± 0.1 |
| KAVLCADHGEKLQLFCQEDGKEICWLCERSQEHRGHHTFLVE [V22E] | -0.127 ± 0.22 |
| KAVLCADHGEKLQLFCQEDGKAICWLCERSQEHRGHHTFLVE [V22A] | -0.047 ± 0.13 |
| KAVLCADHGEKLQLFCQEDGKQICWLCERSQEHRGHHTFLVE [V22Q] | -0.04 ± 0.24 |
| KAVLCADHGEKLQLFCQEDGKGICWLCERSQEHRGHHTFLVE [V22G] | -0.019 ± 0.1 |
| KAVLCADHGEKLQLFCQEDGKNICWLCERSQEHRGHHTFLVE [V22N] | 0.093 ± 0.21 |
| KAVLCADHGEKLQLFCQEDGKWICWLCERSQEHRGHHTFLVE [V22W] | -0.554 ± 0.2 |
| KAVLCADHGEKLQLFCQEDGKVICWLGERSQEHRGHHTFLVE [C27G] | -0.66 ± 0.082 |
| KAVLCADHGEKLQLFCQEDGKVICWLKERSQEHRGHHTFLVE [C27K] | -1.14 ± 0.22 |
| KAVLCADHGEKLQLFCQEDGKVICWLSERSQEHRGHHTFLVE [C27S] | -1.1 ± 0.27 |
